{"source": "the Human Domainome abundance scans (Beltran et al. 2025)", "parents": {"B1": {"name": "RUN and FYVE domain-containing protein 1, residues 639 to 698; numbered along this chain, Q96T51 (parent)", "chain": "WLKDDEATHCRQCEKEFSISRRKHHCRNCGHIFCNTCSSNELALPSYPKPVRVCDSCHTL"}}, "note": "± gives the uncertainty stated by the source."}
{"variants_of": "B1", "assay": "abundance fitness (aPCA) (normalised: wild type 0, dead -1); higher = more abundant; growth selection in yeast, the domain comes from the species named", "details": "Homo sapiens"}
{"variant": "G30A", "abundance fitness": "-0.392 ± 0.072"}
{"variant": "G30C", "abundance fitness": "-0.453 ± 0.075"}
{"variant": "G30Y", "abundance fitness": "-0.56 ± 0.1"}
{"variant": "G30K", "abundance fitness": "-1.17 ± 0.1"}
{"variant": "G30T", "abundance fitness": "-0.77 ± 0.072"}
{"variant": "G30F", "abundance fitness": "-0.945 ± 0.17"}
{"variant": "G30H", "abundance fitness": "-0.428 ± 0.11"}
{"variant": "G30M", "abundance fitness": "-0.264 ± 0.046"}
{"variant": "G30V", "abundance fitness": "-0.764 ± 0.062"}
{"variant": "G30W", "abundance fitness": "-0.235 ± 0.038"}
{"variant": "G30P", "abundance fitness": "-0.754 ± 0.093"}
{"variant": "G30N", "abundance fitness": "-1.04 ± 0.17"}
{"variant": "G30E", "abundance fitness": "-0.239 ± 0.067"}
{"variant": "C34A", "abundance fitness": "-0.659 ± 0.065"}
{"variant": "C34F", "abundance fitness": "-0.853 ± 0.082"}
{"variant": "C34R", "abundance fitness": "-0.642 ± 0.049"}
{"variant": "C34I", "abundance fitness": "-0.71 ± 0.096"}
{"variant": "C34D", "abundance fitness": "-0.577 ± 0.075"}
{"variant": "C34S", "abundance fitness": "-0.758 ± 0.053"}
{"variant": "C34P", "abundance fitness": "-0.633 ± 0.079"}
{"variant": "C34K", "abundance fitness": "-0.493 ± 0.14"}
{"variant": "C34G", "abundance fitness": "-0.608 ± 0.045"}
{"variant": "C34W", "abundance fitness": "-0.736 ± 0.067"}
{"variant": "C34T", "abundance fitness": "-0.612 ± 0.057"}
{"variant": "C34Q", "abundance fitness": "-0.542 ± 0.074"}
{"variant": "C34Y", "abundance fitness": "-0.682 ± 0.086"}
{"variant": "C34M", "abundance fitness": "-0.398 ± 0.057"}
{"variant": "C34L", "abundance fitness": "-0.708 ± 0.052"}
{"variant": "C34V", "abundance fitness": "-0.496 ± 0.055"}
{"variant": "C34H", "abundance fitness": "-0.44 ± 0.08"}
{"variant": "C34N", "abundance fitness": "-0.709 ± 0.11"}
{"variant": "I32H", "abundance fitness": "-0.24 ± 0.18"}
{"variant": "I32E", "abundance fitness": "0.074 ± 0.088"}
{"variant": "I32T", "abundance fitness": "0.007 ± 0.065"}
{"variant": "I32F", "abundance fitness": "0.042 ± 0.067"}
{"variant": "I32S", "abundance fitness": "0.013 ± 0.043"}
{"variant": "I32Q", "abundance fitness": "0.045 ± 0.045"}
{"variant": "I32N", "abundance fitness": "-0.05 ± 0.1"}
{"variant": "I32D", "abundance fitness": "-0.079 ± 0.13"}
{"variant": "I32K", "abundance fitness": "0.134 ± 0.048"}
{"variant": "I32L", "abundance fitness": "-0.056 ± 0.036"}
{"variant": "I32C", "abundance fitness": "-0.105 ± 0.059"}
{"variant": "I32M", "abundance fitness": "0.161 ± 0.045"}
{"variant": "I32P", "abundance fitness": "0.109 ± 0.053"}
{"variant": "I32A", "abundance fitness": "-0.1 ± 0.14"}
{"variant": "I32G", "abundance fitness": "0.195 ± 0.04"}
{"variant": "I32V", "abundance fitness": "0.04 ± 0.045"}
{"variant": "C37F", "abundance fitness": "-0.649 ± 0.13"}
{"variant": "C37H", "abundance fitness": "-0.325 ± 0.12"}
{"variant": "C37I", "abundance fitness": "-0.825 ± 0.17"}
{"variant": "C37N", "abundance fitness": "-0.282 ± 0.26"}
{"variant": "C37T", "abundance fitness": "-0.627 ± 0.061"}
{"variant": "C37S", "abundance fitness": "-0.568 ± 0.052"}
{"variant": "C37Y", "abundance fitness": "-0.615 ± 0.16"}
{"variant": "C37K", "abundance fitness": "-0.658 ± 0.072"}
{"variant": "C37G", "abundance fitness": "-0.471 ± 0.047"}
{"variant": "C37L", "abundance fitness": "-0.719 ± 0.049"}
{"variant": "C37R", "abundance fitness": "-0.553 ± 0.047"}
{"variant": "C37P", "abundance fitness": "-0.537 ± 0.068"}
{"variant": "C37A", "abundance fitness": "-0.326 ± 0.069"}
{"variant": "C37M", "abundance fitness": "-0.567 ± 0.064"}
{"variant": "C37Q", "abundance fitness": "-0.557 ± 0.06"}
{"variant": "N35R", "abundance fitness": "0.172 ± 0.034"}
{"variant": "N35P", "abundance fitness": "0.233 ± 0.051"}
{"variant": "N35V", "abundance fitness": "0.255 ± 0.034"}
{"variant": "N35Q", "abundance fitness": "0.173 ± 0.058"}
{"variant": "N35G", "abundance fitness": "0.436 ± 0.039"}
{"variant": "N35D", "abundance fitness": "0.324 ± 0.067"}
{"variant": "N35A", "abundance fitness": "0.341 ± 0.037"}
{"variant": "N35I", "abundance fitness": "0.047 ± 0.066"}
{"variant": "N35H", "abundance fitness": "0.178 ± 0.059"}
{"variant": "N35L", "abundance fitness": "0.215 ± 0.034"}
{"variant": "N35S", "abundance fitness": "0.23 ± 0.038"}
{"variant": "N35F", "abundance fitness": "-0.064 ± 0.059"}
{"variant": "N35C", "abundance fitness": "0.237 ± 0.051"}
{"variant": "N35E", "abundance fitness": "0.331 ± 0.045"}
{"variant": "N35K", "abundance fitness": "0.183 ± 0.057"}
{"variant": "N35T", "abundance fitness": "0.22 ± 0.037"}
{"variant": "N35M", "abundance fitness": "0.191 ± 0.039"}
{"variant": "N35W", "abundance fitness": "0.088 ± 0.04"}
{"variant": "H24R", "abundance fitness": "-0.378 ± 0.045"}
{"variant": "H24E", "abundance fitness": "0.051 ± 0.047"}
{"variant": "H24C", "abundance fitness": "-0.135 ± 0.066"}
{"variant": "H24F", "abundance fitness": "-0.351 ± 0.063"}
{"variant": "H24N", "abundance fitness": "-0.256 ± 0.087"}
{"variant": "H24T", "abundance fitness": "-0.146 ± 0.051"}
{"variant": "H24A", "abundance fitness": "-0.266 ± 0.053"}
{"variant": "H24V", "abundance fitness": "-0.166 ± 0.046"}
{"variant": "H24L", "abundance fitness": "-0.458 ± 0.046"}
{"variant": "H24P", "abundance fitness": "-0.97 ± 0.091"}
{"variant": "H24W", "abundance fitness": "-0.282 ± 0.048"}
{"variant": "H24I", "abundance fitness": "-0.443 ± 0.061"}
{"variant": "H24Q", "abundance fitness": "-0.293 ± 0.062"}
{"variant": "H24D", "abundance fitness": "-0.251 ± 0.071"}
{"variant": "H24M", "abundance fitness": "-0.148 ± 0.047"}
{"variant": "H24S", "abundance fitness": "-0.284 ± 0.039"}
{"variant": "H24G", "abundance fitness": "-0.515 ± 0.066"}
{"variant": "C29P", "abundance fitness": "-0.835 ± 0.081"}
{"variant": "C29K", "abundance fitness": "-1.11 ± 0.23"}
{"variant": "C29G", "abundance fitness": "-1 ± 0.075"}
{"variant": "C29E", "abundance fitness": "-0.666 ± 0.068"}
{"variant": "C29L", "abundance fitness": "-0.875 ± 0.08"}
{"variant": "C29N", "abundance fitness": "-0.942 ± 0.16"}
{"variant": "C29F", "abundance fitness": "-0.871 ± 0.098"}
{"variant": "C29W", "abundance fitness": "-1.03 ± 0.097"}
{"variant": "C29A", "abundance fitness": "-1.03 ± 0.091"}
{"variant": "C29Y", "abundance fitness": "-0.852 ± 0.097"}
{"variant": "C29Q", "abundance fitness": "-1.23 ± 0.18"}
{"variant": "C29S", "abundance fitness": "-1.01 ± 0.1"}
{"variant": "C29T", "abundance fitness": "-0.818 ± 0.1"}
{"variant": "C29H", "abundance fitness": "-1.25 ± 0.26"}
{"variant": "C29M", "abundance fitness": "-0.906 ± 0.094"}
{"variant": "C29I", "abundance fitness": "-1.11 ± 0.11"}
{"variant": "C29V", "abundance fitness": "-0.904 ± 0.07"}
{"variant": "C29D", "abundance fitness": "-0.709 ± 0.11"}
{"variant": "S20Y", "abundance fitness": "-0.195 ± 0.068"}
{"variant": "N28I", "abundance fitness": "-0.261 ± 0.065"}
{"variant": "N28V", "abundance fitness": "-0.285 ± 0.044"}
{"variant": "N28T", "abundance fitness": "-0.306 ± 0.059"}
{"variant": "N28A", "abundance fitness": "-0.046 ± 0.037"}
{"variant": "N28G", "abundance fitness": "-0.1 ± 0.044"}
{"variant": "N28C", "abundance fitness": "0.058 ± 0.09"}
{"variant": "N28Q", "abundance fitness": "-0.147 ± 0.054"}
{"variant": "N28K", "abundance fitness": "-0.202 ± 0.066"}
{"variant": "N28R", "abundance fitness": "-0.176 ± 0.034"}
{"variant": "N28D", "abundance fitness": "-0.19 ± 0.08"}
{"variant": "N28Y", "abundance fitness": "-0.283 ± 0.065"}
{"variant": "N28P", "abundance fitness": "-0.244 ± 0.069"}
{"variant": "N28H", "abundance fitness": "0.05 ± 0.064"}
{"variant": "N28L", "abundance fitness": "-0.342 ± 0.043"}
{"variant": "N28M", "abundance fitness": "-0.252 ± 0.05"}
{"variant": "N28S", "abundance fitness": "-0.099 ± 0.038"}
{"variant": "N28F", "abundance fitness": "-0.177 ± 0.12"}
{"variant": "N28W", "abundance fitness": "-0.13 ± 0.043"}
{"variant": "F33W", "abundance fitness": "-0.455 ± 0.058"}
{"variant": "F33I", "abundance fitness": "-0.171 ± 0.06"}
{"variant": "F33D", "abundance fitness": "-0.573 ± 0.14"}
{"variant": "F33Y", "abundance fitness": "0.005 ± 0.11"}
{"variant": "F33E", "abundance fitness": "-0.576 ± 0.086"}
{"variant": "F33V", "abundance fitness": "0.076 ± 0.038"}
{"variant": "F33P", "abundance fitness": "-0.888 ± 0.091"}
{"variant": "F33R", "abundance fitness": "-0.6 ± 0.053"}
{"variant": "F33N", "abundance fitness": "-0.488 ± 0.12"}
{"variant": "F33K", "abundance fitness": "-0.602 ± 0.069"}
{"variant": "F33H", "abundance fitness": "-0.458 ± 0.16"}
{"variant": "F33M", "abundance fitness": "-0.378 ± 0.051"}
{"variant": "F33T", "abundance fitness": "-0.238 ± 0.053"}
{"variant": "F33S", "abundance fitness": "-0.47 ± 0.053"}
{"variant": "F33G", "abundance fitness": "-0.537 ± 0.069"}
{"variant": "F33Q", "abundance fitness": "-0.38 ± 0.061"}
{"variant": "F33C", "abundance fitness": "0.059 ± 0.11"}
{"variant": "T36F", "abundance fitness": "0.208 ± 0.064"}
{"variant": "T36V", "abundance fitness": "0.342 ± 0.029"}
{"variant": "T36Q", "abundance fitness": "0.403 ± 0.037"}
{"variant": "T36L", "abundance fitness": "0.3 ± 0.033"}
{"variant": "T36A", "abundance fitness": "0.349 ± 0.041"}
{"variant": "T36R", "abundance fitness": "0.351 ± 0.033"}
{"variant": "T36D", "abundance fitness": "0.401 ± 0.048"}
{"variant": "T36P", "abundance fitness": "0.202 ± 0.048"}
{"variant": "T36N", "abundance fitness": "0.276 ± 0.072"}
{"variant": "T36G", "abundance fitness": "0.444 ± 0.032"}
{"variant": "T36S", "abundance fitness": "0.214 ± 0.038"}
{"variant": "T36W", "abundance fitness": "0.168 ± 0.041"}
{"variant": "T36Y", "abundance fitness": "0.177 ± 0.043"}
{"variant": "T36I", "abundance fitness": "0.083 ± 0.076"}
{"variant": "T36H", "abundance fitness": "0.287 ± 0.075"}
{"variant": "T36K", "abundance fitness": "0.254 ± 0.076"}
